The subject of one assay is HUVE cells. Description: Gel matrix invasion and tube formation. The note with it: collagen or fibrin gels. The assay is classed as cell-based, human. The protocol:
The end product of in vitro angiogenesis is a well-defined network of capillary-like tubes. When cultured on gel matrices, e.g., collagen, fibrin, or Matrigel gels, endothelial cells must first invade the matrix before forming mature vessels.
In some wells, Cyr61 was mixed into the gel matrix before gelation (final concentration 10 μg/ml), while in other wells, Cyr61 was not in the gel matrix but was added as part of the nutrient medium (similar range of concentrations as in the matrix) after the cells reached confluency. HUVE cells were seeded onto the gel matrix surface at 5×10^4 cells per well in Ham's F12K medium [GIBCO-BRL, Inc.] containing 10% fetal bovine serum, 100 μg/ml heparin, and 30 μg/ml endothelial cell growth factor. When the cells reached confluency, the medium was removed, the cells were rinsed with PBS, and fresh medium without endothelial cell growth factor was supplied. Some cultures received purified recombinant Cyr61, while others received Cyr61 and polyclonal anti-Cyr61 antibodies. […]
Invasion of the gel matrix was quantified about 4-7 days after treatment of the confluent cultures. […] Invasion was quantified by measuring the total length of all cell cords that penetrated beneath the surface monolayer. Results were expressed as the mean length in microns per field for at least 3 randomly selected fields from each of at least 3 separate experiments. […]

Another assay deals with Focal Adhesion Kinase. Put plainly: Focal adhesion induction. The assay is classed as cell-based. From the text:
In addition, Cyr61 induces focal adhesion, i.e., cell surface foci for cytoskeletal attachments. Focal adhesion is effected by cell surface protein complexes or clusters. These protein clusters are complex, including a variety of receptors from the integrin family, and a variety of protein kinases. The induction of focal adhesion by Cyr61 is reflected in the capacity of Cyr61 to induce particular members of these cell surface protein clusters. […] Moreover, indirect immunofluorescence studies have shown that Cyr61 is bound to a receptor (see above) in focal adhesive plaques. The plaques, in turn, are characteristic of focal adhesion protein complexes. Focal Adhesion Kinase, Paxillin, and αVβ3 Integrin are co-localized to the focal adhesion plaques produced by focal adhesion complex formation induced by Cyr61. These focal adhesion protein complexes bind Cyr61 at the cell surface; the complexes also attach internally to the cytoskeleton. Therefore, murine Cyr61, and human Cyr61 (see below), are, in part, adhesion molecules, a characteristic distinguishing Cyr61 from conventional growth factors. […] Subsequently, bound Cyr61 is detected, e.g., by anti-Cyr61 antibody that is labeled using techniques known in the art, such as radiolabelling, fluorescent labeling, or the use of enzymes catalyzing calorimetric reactions. […]

The test system of another assay is macrophages. Description: Macrophage binding, antibody inhibition studies. The assay is classed as cell-based. From the text: It is also expected that Cyr61 will promote the migration of macrophages, thus serving a role in attracting and retaining macrophages at the site of a wound. Consequently, Cyr61 is expected to play a role in the inflammatory response of mammals, and modulation of Cyr61 activity is expected to influence the inflammatory response.

The next assay deals with Limb mesenchymal cells. Description: Chondrogenesis, [35S]-sulfate incorporation in micromass cultures. It is filed as cell-based, mouse. The protocol:
Cell proliferation was assessed by the thymidine assay, described above, and by microscopic cell counts. Chondrogenesis was assessed by quantifying the incorporation of [^35S]-sulfate (ICN Biomedicals, Inc.) into sulfated glycosaminoglycans, and by qualitatively determnining the extent of chondrogenesis by cell staining with Alcian Blue. Cultures, described above, were labeled with 2.5 μCi/ml [^35S]-sulfate for 18 hours, washed twice in PBS, fixed with Kahle's fixative (Pepper et al., J. Cell Sci. 109:73-83 [1995]) and stained for 18 hours in 0.5% Alcian Blue, pH 1.0. The extent of chondrogenesis is correlated with the intensity of Alcian Blue staining. San Antonio et at., Dev. Biol. 115:313-324 (1986).
Chondrogenic differentiation was quantitated by incorporation of […] (ICN) into sulfated glycosaminoglycans and assessed qualitatively by Alcian Blue staining. Cultures were radiolabeled with 2.5 μCi/ml [^35S]-sulfate for 18 hr, fixed with Kahle's fixative and stained with 0.5% Alcian Blue, pH 1.0 (Lev et al., 1964). The extent of chondrogenesis is correlated with the intensity of Alcian Blue staining (San Antonio et al., 1986). [^35S]-Sulfate incorporation in the fixed cell layer was quanititated by liquid scintillation counting.
As shown above in Example 11, anti-Cyr61 antibodies can neutlralize both the cell adhesion and DNA-synthesis enhancement activities of Cyr61. Anti-Cyr61 antibodies were added to the mesenchymal cell culture media or mixed the cell suspension prior to plating. […] These observations were correlated with decreased Alcian Blue staining.

The source of these data is patent US7521540B2, “CYR61 compositions and methods” (Munin Corporation, priority 1996, dated 2009).

B1: Cyr61: Cysteine-rich ECM signaling protein; murine sequence SEQ ID NO:2, recombinant from Baculovirus-infected Sf9 cells (protein, listed as Mus musculus)
chain: MSSSTFRTLAVAVTLLHLTRLALSTCPAACHCPLEAPKCAPGVGLVRDGCGCCKVCAKQLNEDCSKTQPCDHTKGLECNFGASSTALKGICRAQSEGRPCEYNSRIYQNGESFQPNCKHQCTCIDGAVGCIPLCPQELSLPNLGCPNPRLVKVSGQCCEEWVCDEDSIKDSLDDQDDLLGLDASEVELTRNNELIAIGKGSSLKRLPVFGTEPRVLFNPLHAHGQKCIVQTTSWSQCSKSCGTGISTRVTNDNPECRLVKETRICEVRPCGQPVYSSLKKGKKCSKTKKSPEPVRFTYAGCSSVKKYRPKYCGSCVDGRCCTPLQTRTVKMRFRCEDGEMFSKNVMMIQSCKCNYNCPHPNEASFRLYSLFNDIHKFRD
As for B1, the “matrix invasion and tube formation” value with HUVE cells is “induce matrix invasion and tube formation”. In the assay with Focal Adhesion Kinase, the “phosphorylation of focal adhesion proteins” value is given as “induces the phosphorylation of Focal Adhesion Kinase”. The “binding to macrophages” value with macrophages was “binds to macrophages via yet another integrin, the αMβ2 integrin”. Also, the “increase in [35S]-sulfate incorporation” value in the assay with Limb mesenchymal cells (0.3 μg/ml) is recorded as 1.5 fold; with Limb mesenchymal cells (5 μg/ml (120 nM)), 3.5 fold. In addition, the “cartilage formation” value in the assay on Limb mesenchymal cells (10 μg/ml) is recorded as “formed a more massive mound of cartilage”. Also, in the assay with Limb mesenchymal cells (sulfate/cell number ratio), the “increase in normalized sulfate incorporation over control” value is “approximately 2 fold”.
